Experimental data: patent publication EP1950297A2

Target: GST-fusion protein containing amino acids 327-517 of KIAA0175 (human) (UniProt Q14680)
Assay: cell-based or functional assay

UniProt Q14680, sequence (Q14680 327-517 S391Q): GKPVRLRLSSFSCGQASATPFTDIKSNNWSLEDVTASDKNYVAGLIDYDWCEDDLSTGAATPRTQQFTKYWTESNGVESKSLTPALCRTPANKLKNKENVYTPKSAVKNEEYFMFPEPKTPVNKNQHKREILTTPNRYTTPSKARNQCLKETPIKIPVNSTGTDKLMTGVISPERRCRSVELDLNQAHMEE

## Ataxia telangiectasia mutated (ATM), immunoprecipitated from cells (from UniProt Q13315 2-3056) (enzyme)
  increase in phosphorylation by ATM immunoprecipitated from gamma-irradiated cells: 2 to 3 fold
